Measurements: patent publication US8524460

T1: M (46-109)
T1 sequence (O43653 whole entry, species assumed, looked up): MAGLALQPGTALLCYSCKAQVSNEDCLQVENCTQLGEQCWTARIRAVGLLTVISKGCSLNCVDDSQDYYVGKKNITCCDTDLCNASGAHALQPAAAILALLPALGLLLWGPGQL

T2: PSCA-glutathione S-transferase (GST) fusion protein (human) (UniProt O43653)
T2 sequence: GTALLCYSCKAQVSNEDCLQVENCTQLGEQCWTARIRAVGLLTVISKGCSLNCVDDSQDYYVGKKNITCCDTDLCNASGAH

B1: anti-PSCA monoclonal antibody 1G8 (antibody, part only; not given: light chain, mouse IgG1, V domains shown, part only)
VH: CFFLMAVVIGVNSEVQLQQSGAELVRSGASVKLSCTASGFNIKDYYIHWVNQRPDQGLEWIGWIDPENGDTEFVPKFQGKATMTADIFSNTAYLHLSSLTSEDTAVYYCKTGGFWGQGTLVTVSAAKTTPPSVYPL
B2: anti-PSCA monoclonal antibody 2H9 (antibody, part only; not given: light chain, mouse IgG1, part only)
VH: NDFGLSWVFIIVLLKGVRSEVRLEESGGGWVQPGGSMKLSCVASGFTFSNYWMTWVRQSPEKGLEWVAEIRLRSENYATHYAESVKGKFTISRDDSRSRLYLQMNNLRPEDSGIYYCTDGLGRPNWGQGTLVTVSAAKTTPPSVYPLAPCV
B3: anti-PSCA monoclonal antibody 4A10 (antibody, part only; not given: light chain, mouse IgG2a, V domains shown, part only)
VH: LVATASDVHSQVQLQQPGSELVRPGTSVKLSCKASGYTFSSYWMHWVKQRPGQGLEWIGNIDPGSGYTNYAENLKTKATLTVDTSSSTAYMQLSSLTSEDSAVYYCTSRSTMITTGFAYWGQGTLVTVSAATTTAPSVYPLA

Key:
Experiment in all cases: ELISA: GST-PSCA fusion protein 50 ng/well, hybridoma supernatant, anti-mouse-HRP, TMB; mean of duplicates
[1] = biological target: T1, M (46-109)
[2] = biological target: T2, PSCA-glutathione S-transferase (GST) fusion protein (human)
[3] = substrate: T3, C (85-123)
T3 sequence (O43653 whole entry, species assumed, looked up): T1 sequence (O43653 whole entry, species assumed, looked up)

[4] = substrate: T4, N (2-50)
T4 sequence (O43653 whole entry, species assumed, looked up): T1 sequence (O43653 whole entry, species assumed, looked up)

Row | Binder | OD 450 nm [1] | OD 450 nm [2] | OD 450 nm [3] | OD 450 nm [4]
1 | B1 | 1.27 OD 450 nm | 1.49 OD 450 nm | 0.003 OD 450 nm | 0.004 OD 450 nm
2 | B2 | 0.002 OD 450 nm | 1.07 OD 450 nm | 0.001 OD 450 nm | 1.03 OD 450 nm
3 | B3 | – | 1.05 OD 450 nm | 0.001 OD 450 nm | 0.493 OD 450 nm
